{
  "source": "paper PMC9482650",
  "about": "“Quantitative fragmentomics allow affinity mapping of interactomes” (Nature Communications, 2022)",
  "binders": {"B1": {"name": "RSBN1, Q5VWQ0 (peptide)", "chain": "NLQEHSTTSV"}},
  "data": [
    {"target": "T1, PDZRN3_1, Q9UPQ7", "T1 sequence (Q9UPQ7 244-349, limits assumed, looked up)": "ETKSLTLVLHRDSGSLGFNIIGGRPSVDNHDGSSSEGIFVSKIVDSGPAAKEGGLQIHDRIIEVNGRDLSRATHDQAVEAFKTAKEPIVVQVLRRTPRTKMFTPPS", "assay": "holdup assay", "set-up": "key: below the threshold = too weak to quantify, mostly under pKd 3.1 to 4", "details": "plain residues with an end cap or a label only (N-terminal biotin on a linker: ado-ado)", "values": [
      {"binder": "B1", "pKd": "below the threshold"}
    ]},
    {"target": "T2, DFNB31_1, Q9P202", "T2 sequence (Q9P202 135-233, limits assumed, looked up)": "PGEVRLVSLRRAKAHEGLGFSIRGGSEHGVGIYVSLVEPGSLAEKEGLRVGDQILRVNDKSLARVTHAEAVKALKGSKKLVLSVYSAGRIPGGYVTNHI", "assay": "holdup assay", "set-up": "key: below the threshold = too weak to quantify, mostly under pKd 3.1 to 4", "details": "plain residues with an end cap or a label only (N-terminal biotin on a linker: ado-ado)", "values": [
      {"binder": "B1", "pKd": 3.72}
    ]},
    {"target": "T3, PTPN13_1, Q12923", "T3 sequence (Q12923 1088-1188, limits assumed, looked up)": "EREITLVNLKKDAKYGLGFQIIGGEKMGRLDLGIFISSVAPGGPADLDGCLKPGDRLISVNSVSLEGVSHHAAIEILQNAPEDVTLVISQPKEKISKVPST", "assay": "holdup assay", "set-up": "key: below the threshold = too weak to quantify, mostly under pKd 3.1 to 4", "details": "plain residues with an end cap or a label only (N-terminal biotin on a linker: ado-ado)", "values": [
      {"binder": "B1", "pKd": "below the threshold"}
    ]},
    {"target": "Inadl_3, Q8NI35", "sequence (Q8NI35 359-469)": "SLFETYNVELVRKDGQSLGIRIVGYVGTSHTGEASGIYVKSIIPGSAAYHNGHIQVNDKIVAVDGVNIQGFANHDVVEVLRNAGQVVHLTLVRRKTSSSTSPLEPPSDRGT", "assay": "holdup assay", "set-up": "key: below the threshold = too weak to quantify, mostly under pKd 3.1 to 4", "details": "plain residues with an end cap or a label only (N-terminal biotin on a linker: ado-ado)", "values": [
      {"binder": "B1", "pKd": "below the threshold"}
    ]},
    {"target": "T4, TX1BP3, O14907", "T4 sequence (O14907 10-122, limits assumed, looked up)": "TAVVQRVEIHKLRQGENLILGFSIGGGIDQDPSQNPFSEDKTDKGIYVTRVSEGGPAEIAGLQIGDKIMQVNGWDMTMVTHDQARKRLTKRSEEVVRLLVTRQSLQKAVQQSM", "assay": "holdup assay", "set-up": "key: below the threshold = too weak to quantify, mostly under pKd 3.1 to 4", "details": "plain residues with an end cap or a label only (N-terminal biotin on a linker: ado-ado)", "values": [
      {"binder": "B1", "pKd": 3.97}
    ]},
    {"target": "CASK, O14936", "sequence (O14936 487-570)": "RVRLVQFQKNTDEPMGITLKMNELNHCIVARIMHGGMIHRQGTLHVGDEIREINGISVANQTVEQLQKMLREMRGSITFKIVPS", "assay": "holdup assay", "set-up": "key: below the threshold = too weak to quantify, mostly under pKd 3.1 to 4", "details": "plain residues with an end cap or a label only (N-terminal biotin on a linker: ado-ado)", "values": [
      {"binder": "B1", "pKd": "below the threshold"}
    ]},
    {"target": "T5, TIAM2, Q8IVF5", "T5 sequence (Q8IVF5 885-986, limits assumed, looked up)": "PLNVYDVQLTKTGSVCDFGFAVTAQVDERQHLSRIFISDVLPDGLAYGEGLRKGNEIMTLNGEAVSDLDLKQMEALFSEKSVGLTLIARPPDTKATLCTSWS", "assay": "holdup assay", "set-up": "key: below the threshold = too weak to quantify, mostly under pKd 3.1 to 4", "details": "plain residues with an end cap or a label only (N-terminal biotin on a linker: ado-ado)", "values": [
      {"binder": "B1", "pKd": "below the threshold"}
    ]},
    {"target": "T6, SYNJ2BP, P57105", "T6 sequence (P57105 8-110, limits assumed, looked up)": "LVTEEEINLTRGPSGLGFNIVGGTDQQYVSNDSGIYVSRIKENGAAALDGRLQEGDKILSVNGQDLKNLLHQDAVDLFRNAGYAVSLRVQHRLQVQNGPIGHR", "assay": "holdup assay", "set-up": "key: below the threshold = too weak to quantify, mostly under pKd 3.1 to 4", "details": "plain residues with an end cap or a label only (N-terminal biotin on a linker: ado-ado)", "values": [
      {"binder": "B1", "pKd": 4.42}
    ]},
    {"target": "T7, MPP2, Q14168", "T7 sequence (Q14168 180-250, limits assumed, looked up)": "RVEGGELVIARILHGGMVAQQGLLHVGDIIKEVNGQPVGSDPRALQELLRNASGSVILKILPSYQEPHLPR", "assay": "holdup assay", "set-up": "key: below the threshold = too weak to quantify, mostly under pKd 3.1 to 4", "details": "plain residues with an end cap or a label only (N-terminal biotin on a linker: ado-ado)", "values": [
      {"binder": "B1", "pKd": "below the threshold"}
    ]},
    {"target": "FRMPD4, Q14CM0", "sequence (Q14CM0 67-160)": "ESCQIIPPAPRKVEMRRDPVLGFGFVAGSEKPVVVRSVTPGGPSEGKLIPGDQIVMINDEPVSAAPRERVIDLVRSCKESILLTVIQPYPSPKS", "assay": "holdup assay", "set-up": "key: below the threshold = too weak to quantify, mostly under pKd 3.1 to 4", "details": "plain residues with an end cap or a label only (N-terminal biotin on a linker: ado-ado)", "values": [
      {"binder": "B1", "pKd": "below the threshold"}
    ]},
    {"target": "T8, LRRC7, Q96NW7", "T8 sequence (Q96NW7 1440-1537, limits assumed, looked up)": "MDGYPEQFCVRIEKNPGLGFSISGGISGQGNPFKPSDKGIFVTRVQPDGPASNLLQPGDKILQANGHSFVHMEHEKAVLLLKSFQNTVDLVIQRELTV", "assay": "holdup assay", "set-up": "key: below the threshold = too weak to quantify, mostly under pKd 3.1 to 4", "details": "plain residues with an end cap or a label only (N-terminal biotin on a linker: ado-ado)", "values": [
      {"binder": "B1", "pKd": "below the threshold"}
    ]},
    {"target": "MAGI1_2, Q96QZ7", "sequence (Q96QZ7 456-580)": "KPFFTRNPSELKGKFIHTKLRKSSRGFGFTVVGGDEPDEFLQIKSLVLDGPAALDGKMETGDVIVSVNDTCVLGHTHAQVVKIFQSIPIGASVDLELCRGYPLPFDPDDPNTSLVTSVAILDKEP", "assay": "holdup assay", "set-up": "key: below the threshold = too weak to quantify, mostly under pKd 3.1 to 4", "details": "plain residues with an end cap or a label only (N-terminal biotin on a linker: ado-ado)", "values": [
      {"binder": "B1", "pKd": 3.53}
    ]},
    {"target": "T9, GRIP1_2, Q9Y3R0", "T9 sequence (Q9Y3R0 145-248, limits assumed, looked up)": "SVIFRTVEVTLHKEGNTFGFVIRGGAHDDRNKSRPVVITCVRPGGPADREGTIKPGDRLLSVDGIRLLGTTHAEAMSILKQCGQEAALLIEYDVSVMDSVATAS", "assay": "holdup assay", "set-up": "key: below the threshold = too weak to quantify, mostly under pKd 3.1 to 4", "details": "plain residues with an end cap or a label only (N-terminal biotin on a linker: ado-ado)", "values": [
      {"binder": "B1", "pKd": "below the threshold"}
    ]},
    {"target": "SNX27, Q96L92", "assay": "holdup assay", "set-up": "key: below the threshold = too weak to quantify, mostly under pKd 3.1 to 4", "details": "plain residues with an end cap or a label only (N-terminal biotin on a linker: ado-ado)", "values": [
      {"binder": "B1", "pKd": 5.48}
    ]},
    {"target": "T10, DFNB31_2, Q9P202", "T10 sequence (Q9P202 274-371, limits assumed, looked up)": "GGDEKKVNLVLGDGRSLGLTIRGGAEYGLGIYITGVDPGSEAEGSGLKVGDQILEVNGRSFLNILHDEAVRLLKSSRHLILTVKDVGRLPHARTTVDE", "assay": "holdup assay", "set-up": "key: below the threshold = too weak to quantify, mostly under pKd 3.1 to 4", "details": "plain residues with an end cap or a label only (N-terminal biotin on a linker: ado-ado)", "values": [
      {"binder": "B1", "pKd": "below the threshold"}
    ]},
    {"target": "T11, SNTG1, Q9NSN8", "T11 sequence (Q9NSN8 52-150, limits assumed, looked up)": "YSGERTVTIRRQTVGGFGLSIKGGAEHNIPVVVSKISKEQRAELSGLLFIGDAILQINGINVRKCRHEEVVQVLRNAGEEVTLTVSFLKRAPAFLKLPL", "assay": "holdup assay", "set-up": "key: below the threshold = too weak to quantify, mostly under pKd 3.1 to 4", "details": "plain residues with an end cap or a label only (N-terminal biotin on a linker: ado-ado)", "values": [
      {"binder": "B1", "pKd": 3.65}
    ]},
    {"target": "GRIP2_6, Q9C0E4", "sequence (Q9C0E4 648-740)": "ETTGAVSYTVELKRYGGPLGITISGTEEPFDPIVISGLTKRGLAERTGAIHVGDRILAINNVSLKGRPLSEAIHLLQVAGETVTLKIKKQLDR", "assay": "holdup assay", "set-up": "key: below the threshold = too weak to quantify, mostly under pKd 3.1 to 4", "details": "plain residues with an end cap or a label only (N-terminal biotin on a linker: ado-ado)", "values": [
      {"binder": "B1", "pKd": "below the threshold"}
    ]},
    {"target": "T12, PCLO, Q9Y6V0", "T12 sequence (Q9Y6V0 4491-4600, limits assumed, looked up)": "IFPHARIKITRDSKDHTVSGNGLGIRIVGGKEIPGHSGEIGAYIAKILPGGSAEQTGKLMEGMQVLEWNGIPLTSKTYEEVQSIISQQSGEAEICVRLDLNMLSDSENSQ", "assay": "holdup assay", "set-up": "key: below the threshold = too weak to quantify, mostly under pKd 3.1 to 4", "details": "plain residues with an end cap or a label only (N-terminal biotin on a linker: ado-ado)", "values": [
      {"binder": "B1", "pKd": "below the threshold"}
    ]},
    {"target": "T13, FRMPD1, Q5SYB0", "T13 sequence (Q5SYB0 52-145, limits assumed, looked up)": "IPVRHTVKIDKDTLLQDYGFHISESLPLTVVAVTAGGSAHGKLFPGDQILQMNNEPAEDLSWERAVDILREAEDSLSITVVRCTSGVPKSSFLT", "assay": "holdup assay", "set-up": "key: below the threshold = too weak to quantify, mostly under pKd 3.1 to 4", "details": "plain residues with an end cap or a label only (N-terminal biotin on a linker: ado-ado)", "values": [
      {"binder": "B1", "pKd": "below the threshold"}
    ]},
    {"target": "DLG5_1, Q8TDM6", "sequence (Q8TDM6 617-713)": "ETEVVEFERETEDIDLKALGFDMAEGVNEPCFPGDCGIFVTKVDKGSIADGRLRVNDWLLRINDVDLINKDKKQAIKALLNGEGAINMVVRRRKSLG", "assay": "holdup assay", "set-up": "key: below the threshold = too weak to quantify, mostly under pKd 3.1 to 4", "details": "plain residues with an end cap or a label only (N-terminal biotin on a linker: ado-ado)", "values": [
      {"binder": "B1", "pKd": "below the threshold"}
    ]},
    {"target": "T14, PDZD2_2, O15018", "T14 sequence (O15018 329-429, limits assumed, looked up)": "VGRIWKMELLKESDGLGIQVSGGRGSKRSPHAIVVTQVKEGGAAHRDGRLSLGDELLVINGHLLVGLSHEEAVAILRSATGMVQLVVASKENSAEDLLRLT", "assay": "holdup assay", "set-up": "key: below the threshold = too weak to quantify, mostly under pKd 3.1 to 4", "details": "plain residues with an end cap or a label only (N-terminal biotin on a linker: ado-ado)", "values": [
      {"binder": "B1", "pKd": 4.52}
    ]},
    {"target": "GIPC2, Q8TF65", "sequence (Q8TF65 112-203)": "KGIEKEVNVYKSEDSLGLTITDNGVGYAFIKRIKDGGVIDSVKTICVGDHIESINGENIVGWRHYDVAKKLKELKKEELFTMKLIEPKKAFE", "assay": "holdup assay", "set-up": "key: below the threshold = too weak to quantify, mostly under pKd 3.1 to 4", "details": "plain residues with an end cap or a label only (N-terminal biotin on a linker: ado-ado)", "values": [
      {"binder": "B1", "pKd": "below the threshold"}
    ]},
    {"target": "FRMPD2_3, Q68DX3", "sequence (Q68DX3 1073-1166)": "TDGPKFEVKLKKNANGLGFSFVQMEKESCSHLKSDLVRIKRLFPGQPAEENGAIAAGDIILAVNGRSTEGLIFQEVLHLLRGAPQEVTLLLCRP", "assay": "holdup assay", "set-up": "key: below the threshold = too weak to quantify, mostly under pKd 3.1 to 4", "details": "plain residues with an end cap or a label only (N-terminal biotin on a linker: ado-ado)", "values": [
      {"binder": "B1", "pKd": "below the threshold"}
    ]}
  ]
}
